# From IntAct's records for PubMed 20048159
# B1: Ras-related protein Rab-9A (Homo sapiens), P51151 (parent)
# chain: MAGKSSLFKVILLGDGGVGKSSLMNRYVTNKFDTQLFHTIGVEFLNKDLEVDGHFVTMQIWDTAGQERFRSLRTPFYRGSDCCLLTFSVDDSQSFQNLSNWKKEFIYYADVKEPESFPFVILGNKIDISERQVSTEEAQAWCRDNGDYPYFETSAKDATNVAAAFEEAVRRVLATEDRSDHLIQTDTVNLHRKPKPSSSCC
# partner: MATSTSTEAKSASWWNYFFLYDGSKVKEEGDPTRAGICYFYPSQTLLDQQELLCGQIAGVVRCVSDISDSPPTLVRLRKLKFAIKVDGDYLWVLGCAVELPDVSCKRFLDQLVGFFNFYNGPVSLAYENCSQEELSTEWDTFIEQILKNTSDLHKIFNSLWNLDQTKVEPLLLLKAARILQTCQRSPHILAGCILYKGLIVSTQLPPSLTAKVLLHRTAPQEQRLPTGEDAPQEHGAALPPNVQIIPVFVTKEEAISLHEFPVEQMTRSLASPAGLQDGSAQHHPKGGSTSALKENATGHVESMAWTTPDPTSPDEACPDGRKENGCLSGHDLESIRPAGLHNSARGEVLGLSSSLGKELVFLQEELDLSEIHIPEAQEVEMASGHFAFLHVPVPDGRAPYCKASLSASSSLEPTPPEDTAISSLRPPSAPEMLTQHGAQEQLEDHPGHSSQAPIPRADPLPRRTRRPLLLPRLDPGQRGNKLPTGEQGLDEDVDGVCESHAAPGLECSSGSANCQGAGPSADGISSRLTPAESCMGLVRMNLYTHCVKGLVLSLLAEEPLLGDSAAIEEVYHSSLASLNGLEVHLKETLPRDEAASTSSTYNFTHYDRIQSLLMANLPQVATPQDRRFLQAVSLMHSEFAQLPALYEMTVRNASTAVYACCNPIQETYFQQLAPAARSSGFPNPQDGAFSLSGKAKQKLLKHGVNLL
# Variants of: B1
# Details: with hps4_human HPS4, Q9NQG7
row,Variant,effect of a mutation on the interaction
1,MAGKSSLFKVILLGDGGVGKSSLMNRYVTNKFDTQLFHTIGAEFLNKDLEVDGHFVTMQIWDTAGLERFRSLRTPFYRGSDCCLLTFSVDDSQSFQNLSNWKKEFIYYADVKEPESFPFVILGNKIDISERQVSTEEAQAWCRDNGDYPYFETSAKDATNVAAAFEEAVRRVLATEDRSDHLIQTDTVNLHRKPKPSSSCC [V42A;Q66L],with no effect
2,MAGKSSLFKVILLGDGGVGKSSLMNRYVTNKFDTQLFHTIGVEFLNKDLEVDGHFVTMQIWDTAGLERFRSLRTPFYRGSDCCLLTFSVDDSQSFQNLSNWKKEFIYYADVKEPESFPFVILGNKIDISERQVSTEEAQAWCRDNGDYPYFETSAKDATNVAAAFEEAVRRVLATEDRSDHLIQTDTVNLHRKPKPSSSCC [Q66L],with no effect
3,MAGKSSLFKVILLGDGGVGKSSLMNRYVTNKFDTQLFHTIGVEFLNKDLEVDGHFVTMQIWDTAGLERFRSARTPFYRGSDCCLLTFSVDDSQSFQNLSNWKKEFIYYADVKEPESFPFVILGNKIDISERQVSTEEAQAWCRDNGDYPYFETSAKDATNVAAAFEEAVRRVLATEDRSDHLIQTDTVNLHRKPKPSSSCC [Q66L;L72A],with no effect
4,MAGKSSLFKVILLGDGGVGKSSLMNRYVTNKFDTQLFHTIGVEFLNKDLEVDGHFVTMQIADTAGLERFRSLRTPFYRGSDCCLLTFSVDDSQSFQNLSNWKKEFIYYADVKEPESFPFVILGNKIDISERQVSTEEAQAWCRDNGDYPYFETSAKDATNVAAAFEEAVRRVLATEDRSDHLIQTDTVNLHRKPKPSSSCC [W61A;Q66L],disrupting interaction strength
5,MAGKSSLFKVILLGDGGVGKSSLMNRYVTNKFDAQLFHTIGVEFLNKDLEVDGHFVTMQIWDTAGLERFRSLRTPFYRGSDCCLLTFSVDDSQSFQNLSNWKKEFIYYADVKEPESFPFVILGNKIDISERQVSTEEAQAWCRDNGDYPYFETSAKDATNVAAAFEEAVRRVLATEDRSDHLIQTDTVNLHRKPKPSSSCC [T34A;Q66L],with no effect
6,MAGKSSLFKVILLGDGGVGKSSLMNRYVTNKFDTQLFHTIGVEALNKDLEVDGHFVTMQIWDTAGLERFRSLRTPFYRGSDCCLLTFSVDDSQSFQNLSNWKKEFIYYADVKEPESFPFVILGNKIDISERQVSTEEAQAWCRDNGDYPYFETSAKDATNVAAAFEEAVRRVLATEDRSDHLIQTDTVNLHRKPKPSSSCC [F44A;Q66L],disrupting interaction strength
7,MAGKSSLFKVILLGDGGVGKSSLMNRYVTNKFDTQLFHTAGVEFLNKDLEVDGHFVTMQIWDTAGLERFRSLRTPFYRGSDCCLLTFSVDDSQSFQNLSNWKKEFIYYADVKEPESFPFVILGNKIDISERQVSTEEAQAWCRDNGDYPYFETSAKDATNVAAAFEEAVRRVLATEDRSDHLIQTDTVNLHRKPKPSSSCC [I40A;Q66L],disrupting interaction strength
8,MAGKSSLFKVILLGDGGVGKSSLMNRYVTNKFDTQLFATIGVEFLNKDLEVDGHFVTMQIWDTAGLERFRSLRTPFYRGSDCCLLTFSVDDSQSFQNLSNWKKEFIYYADVKEPESFPFVILGNKIDISERQVSTEEAQAWCRDNGDYPYFETSAKDATNVAAAFEEAVRRVLATEDRSDHLIQTDTVNLHRKPKPSSSCC [H38A;Q66L],with no effect
9,MAGKSSLFKVILLGDGGVGKSSLMNRYVTNKFDTALFHTIGVEFLNKDLEVDGHFVTMQIWDTAGLERFRSLRTPFYRGSDCCLLTFSVDDSQSFQNLSNWKKEFIYYADVKEPESFPFVILGNKIDISERQVSTEEAQAWCRDNGDYPYFETSAKDATNVAAAFEEAVRRVLATEDRSDHLIQTDTVNLHRKPKPSSSCC [Q35A;Q66L],with no effect
10,MAGKSSLFKVILLGDGGVGKSSLMNRYVTNKFDTQLFHTIGVEFLNKDLEVDGHFVTMQIWDTAGLERFRSLRTPAYRGSDCCLLTFSVDDSQSFQNLSNWKKEFIYYADVKEPESFPFVILGNKIDISERQVSTEEAQAWCRDNGDYPYFETSAKDATNVAAAFEEAVRRVLATEDRSDHLIQTDTVNLHRKPKPSSSCC [Q66L;F76A],with no effect
